Measured values: PMC6864339
Where two headings read alike, the source gives them in different places.

Columns and labels:
[1] = molecular target: Insulin; assay: BLI
[2] = molecular target: Insulin; assay: BLI; remark: listed apart in the source

Kd [1]: 1.4 µM
koff [1]: 0.0006 s⁻¹
Kd [2]: 1.8 µM
koff [2]: 0.001 s⁻¹
kon [2]: 720 M⁻¹ s⁻¹
B1: Recombinant mouse secretagogin (SCGN) (natural protein)
chain: MDNARRKTPARLDAACFWQIWQRFDKEEKGYIRETELDAFFDHLLAKSGTEDTLMEENVQKVKEQLMTSHNVSKEGRILMKELASMFLSEDENFLLFFRLETPLDNSVEFMQIWRKYDADSSGFISAAELCNFLRDLFLHHKKNISEAELEEYTSTMMKIFDKNKDGRLDLNDLARILALQENFLLQFKMDASSTEERKRDFEKIFAHYDVSKTGALEGPEVDGFVKDMMELVQPSISGVDLDKFREILLRHCDVNKDGKIQKSELALCLGLKINP
